These results are taken from paper PMC5846801, “Disease Variants of FGFR3 Reveal Molecular Basis for the Recognition and Additional Roles for Cdc37 in Hsp90 Chaperone System” (Structure(London, England:1993), 2018).

The labels stand for the following.
B2: FGFR3 kinase domain variant I538F (domain or fragment)
chain: SELELPADPKWELSRARLTLGKPLGEGCFGQVVMAEAIGIDKDRAAKPVTVAVKMLKDDATDKDLSDLVSEMEMMKMIGKHKNFINLLGACTQGGPLYVLVEYAAKGNLREFLRARRPPGLDYSFDTCKPPEEQLTFKDLVSCAYQVARGMEYLASQKCIHRDLAARNVLVTEDNVMKIADFGLARDVHNLDYYKKTTNGRLPVKWMAPEALFDRVYTHQSDVWSFGVLLWEIFTLGGSPYPGIPVEELFKLLKEGHRMDKPANCTHDLYMIMRECWHAAPSQRPTFKQLVEDLDRVLTVTSTDEYLDLSAPFE
notes: FGFR3 kinase domain, amino acids 455-768 of human FGFR3, disease-linked (cancer) mutation I538F; pJ821 construct; 15N labelled for NMR; also called FGFR3^I538F; GFR3^I538F; source: E. coli C41 (DE3), co-expressed with lambda phosphatase, purified (HisTrap, HiTrap Q, Superdex 200); not shown: His-SUMO, N-terminal, cleaved
B4: non-phosphorylated Cdc37 (natural protein)
chain: MVDYSVWDHIEVSDDEDETHPNIDTASLFRWRHQARVERMEQFQKEKEELDRGCRECKRKVAECQRKLKELEVAEGGKAELERLQAEAQQLRKEERSWEQKLEEMRKKEKSMPWNVDTLSKDGFSKSMVNTKPEKTEEDSEEVREQKHKTFVEKYEKQIKHFGMLRRWDDSQKYLSDNVHLVCEETANYLVIWCIDLEVEEKCALMEQVAHQTIVMQFILELAKSLKVDPRACFRQFFTKIKTADRQYMEGFNDELEAFKERVRGRAKLRIEKAMKEYEEEERKKRLGPGGLDPVEVYESLPEELQKCFDVKDVQMLQDAISKMDPTDAKYHMQRCIDSGLWVPNSKASEAKEGEEAGPGDPLLEAVPKTGDEKDVSV
notes: human Hsp90 co-chaperone Cdc37, expressed from pET28 (gift of C. Vaughan; Vaughan et al., 2006), not phosphorylated; Used in ITC and in the auto-phosphorylation assay and in the comparison with the phosphorylated form; No tag removal step is described; also called CDC37^Apo; Cdc37^Apo; source: E. coli C41 (DE3), purified (HisTrap, HiTrap Q, Superdex 200)

Settings in all cases: both partners purified
The target of one test is T1, Hsp90α (human, UniProt P07900 1-732).
T1 construct: human Hsp90α, expressed from pRSET (gift of C. Vaughan; Vaughan et al., 2006); Used at a 2:1:1 ratio to Cdc37 and kinase; source: E. coli C41 (DE3), purified (HisTrap, HiTrap Q, Superdex 200)
Put plainly: SEC; ternary mixture: 15 μM kinase, 15 μM Cdc37, 30 μM Hsp90α (1:1:2), 15 min at 4 °C; Superdex 200 Increase, 25 mM Tris.Cl, 150 mM NaCl, 1 mM TCEP, pH 8.0, 4 °C; fractions by SDS-PAGE and ELISA.

The test “non-phosphorylated Cdc37” deals with B4. Put plainly: ITC; kinase domain in the cell (FGFR3 WT 19.4 μM, FGFR3 I538F 16.9 μM), Cdc37 Apo 211.7 μM in the syringe; 25 mM Tris.Cl, 50 mM NaCl, 5 mM MgCl2, 0.1 mM TCEP, pH 7.5, 20 °C; single site model.
Test [1] deals with B2. The test is described as above.

B1: FGFR3 kinase domain variant E466K (domain or fragment)
chain: SELELPADPKWKLSRARLTLGKPLGEGCFGQVVMAEAIGIDKDRAAKPVTVAVKMLKDDATDKDLSDLVSEMEMMKMIGKHKNIINLLGACTQGGPLYVLVEYAAKGNLREFLRARRPPGLDYSFDTCKPPEEQLTFKDLVSCAYQVARGMEYLASQKCIHRDLAARNVLVTEDNVMKIADFGLARDVHNLDYYKKTTNGRLPVKWMAPEALFDRVYTHQSDVWSFGVLLWEIFTLGGSPYPGIPVEELFKLLKEGHRMDKPANCTHDLYMIMRECWHAAPSQRPTFKQLVEDLDRVLTVTSTDEYLDLSAPFE
notes: FGFR3 kinase domain, amino acids 455-768 of human FGFR3, disease-linked (cancer) mutation E466K; also called FGFR3^E466K; source: E. coli C41 (DE3), co-expressed with lambda phosphatase, purified (HisTrap, HiTrap Q, Superdex 200)
Turning to B1, in the test with Hsp90α, the binding result was “binds”.

In the test with non-phosphorylated Cdc37, B2 gave a Kd of 1800 nM. In the test with Hsp90α, the binding result is on record as “binds”.

B3: FGFR3 kinase domain variant N540K (domain or fragment)
chain: SELELPADPKWELSRARLTLGKPLGEGCFGQVVMAEAIGIDKDRAAKPVTVAVKMLKDDATDKDLSDLVSEMEMMKMIGKHKNIIKLLGACTQGGPLYVLVEYAAKGNLREFLRARRPPGLDYSFDTCKPPEEQLTFKDLVSCAYQVARGMEYLASQKCIHRDLAARNVLVTEDNVMKIADFGLARDVHNLDYYKKTTNGRLPVKWMAPEALFDRVYTHQSDVWSFGVLLWEIFTLGGSPYPGIPVEELFKLLKEGHRMDKPANCTHDLYMIMRECWHAAPSQRPTFKQLVEDLDRVLTVTSTDEYLDLSAPFE
notes: FGFR3 kinase domain, amino acids 455-768 of human FGFR3, disease-linked mutation N540K; pJ821 construct; also called FGFR3^N540K; source: E. coli C41 (DE3), co-expressed with lambda phosphatase, purified (HisTrap, HiTrap Q, Superdex 200); not shown: His-SUMO, N-terminal, cleaved
Regarding B3, in the test with Hsp90α, the binding result is “binds”.

As for B4, the “stoichiometry N” value in test [1] came out at 1.
